The record followed here is patent US20150299277A1 (UNIVERSITY OF TOKYO, published 2015).

Test [1] deals with T1, Myc- and His-tagged full-length human PTX3 (human, UniProt P26022 18-381).
T1 construct: also called full-length PTX3; Myc-tagged full-length PTX3; not shown: Myc and His tags of the pEF4/Myc-His B vector
The experiment in a line: dot blot: fragments on nitrocellulose, PTX3 overlay, anti-myc detection (FIG. 12A left).

Test [2] deals with T2, Myc- and His-tagged C-terminal domain human PTX3 (animal cell expressed) (human, UniProt P26022 179-381).
T2 construct: also called C-terminal domain of PTX3; C-terminal fragment of PTX3; not shown: Myc and His tags of the pEF4/Myc-His B vector
T2 sequence: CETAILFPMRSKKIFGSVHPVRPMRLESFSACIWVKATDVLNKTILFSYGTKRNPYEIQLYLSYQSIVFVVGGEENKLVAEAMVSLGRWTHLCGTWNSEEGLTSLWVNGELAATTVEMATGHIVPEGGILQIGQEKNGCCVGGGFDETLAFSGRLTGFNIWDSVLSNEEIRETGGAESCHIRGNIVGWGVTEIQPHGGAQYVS
Described as above.

As for LVGLFEDTNLCAIHAKRVTI [histone H3 fragment H3-11], the binding result in test [1] and in test [2] was “binds” throughout.

Consider EIRRYQKSTELLIRKLPFQR [histone H3 fragment H3-6], for which, in test [1], the binding result is “binds”.
